Test results published in patent publication US20080038731.

What was measured:
IkBα, P25963 = target: T1, IkBα, P25963
T1 chain: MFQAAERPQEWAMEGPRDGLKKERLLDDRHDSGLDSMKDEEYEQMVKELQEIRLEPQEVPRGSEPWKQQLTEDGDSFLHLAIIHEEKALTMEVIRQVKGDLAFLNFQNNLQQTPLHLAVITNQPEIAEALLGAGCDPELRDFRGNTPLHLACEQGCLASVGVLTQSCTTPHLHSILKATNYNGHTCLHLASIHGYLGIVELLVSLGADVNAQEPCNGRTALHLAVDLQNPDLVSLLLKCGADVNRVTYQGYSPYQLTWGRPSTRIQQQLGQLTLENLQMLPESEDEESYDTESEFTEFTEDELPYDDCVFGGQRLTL

Chain of p53, P04637 (P04637 whole entry, looked up): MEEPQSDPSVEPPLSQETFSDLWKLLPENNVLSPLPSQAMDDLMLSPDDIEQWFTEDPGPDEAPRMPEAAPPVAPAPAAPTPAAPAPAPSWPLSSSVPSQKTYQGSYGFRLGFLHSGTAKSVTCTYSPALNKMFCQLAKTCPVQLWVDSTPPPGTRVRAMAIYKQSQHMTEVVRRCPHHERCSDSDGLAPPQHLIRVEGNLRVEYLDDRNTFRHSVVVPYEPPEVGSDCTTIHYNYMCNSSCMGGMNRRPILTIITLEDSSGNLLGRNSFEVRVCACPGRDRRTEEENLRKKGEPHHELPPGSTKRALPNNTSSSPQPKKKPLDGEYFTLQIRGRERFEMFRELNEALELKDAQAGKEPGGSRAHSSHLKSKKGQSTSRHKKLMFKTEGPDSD

B1: purified topors (protein)
chain: MGSQPPLGSPLSREEGEAPPPAPASEGRRRSRRVRLRGSCRHRPSFLGCRELAASAPARPAPASSEIMASAAKEFKMDNFSPKAGTSKLQQTVPADASPDSKCPICLDRFDNVSYLDRCLHKFCFRCVQEWSKNKAECPLCKQPFDSIFHSVRAEDDFKEYVLRPSYNGSFVTPDRRFRYRTTLTRERNASVYSPSGPVNRRTTTPPDSGVLFEGLGISTRPRDVEIPQFMRQIAVRRPTTADERSLRKIQEQDIINFRRTLYRAGARVRNIEDGGRYRDISAEFFRRNPACLHRLVPWLKRELTVLFGAHGSLVNIVQHIIMSNVTRYDLESQAFVSDLRPFLLNRTEHFIHEFISFARSPFNMAAFDQHANYDCPAPSYEEGSHSDSSVITISPDEAETQELDINVATVSQAPWDDETPGPSYSSSEQVHVTMSSLLNTSDSSDEELVTGGATSQIQGVQTNDDLNNDSDDSSDNCVIVGFVKPLAERTPELVELSSDSEDLGSYEKMETVKTQEQEQSYSSGDSDVSRCSSPHSVLGKDEQINKGHCDSSTRIKSKKEEKRSTSLSSPRNLNSSVRGDRVYSPYNHRHRKRGRSRSSDSRSQSRSGHDQKNHRKHHGKKRMKSKRSRSRESSRPRGRRDKKRSRTRDSSWSRRSQTLSLSSESTSRSRSRSSDHGKRRSRSRNRDRYYLRNNYGSRYKWEYTYYSRNKDRDGYESSYRRRTLSRAHYSRQSSSPEFRVQSFSERTNARKKNNHSERKYYYYERHRSRSLSSNRSRTASTGTDRVRNEKPGGKRKYKTRHLEGTNEVAQPSREFASKAKDSHYQKSSSKLDGNYKNESDTFSDSRSSDRETKHKRRKRKTRSLSVEIVYEGKATDTTKHHKKKKKKHKKKHKKHHGDNASRSPVVITIDSDSDKDSEVKEDTECDNSGPQDPLQNEFLAPSLEPFETKDVVTIEAEFGVLDKECDIATLSNNLNNANKTVDNIPPLAASVEQTLDVREESTFVSDLENQPSNIVSLQTEPSRQLPSPRTSLMSVCLGRDCDMS
B1 was tested, and the “sumoylation of IkBα in vitro” value (IkBα, P25963) was “Topors also activates sumoylation of p53, but not IkBα” and the “sumoylation of p53 in vitro” value (p53, P04637) was “Topors also activates sumoylation of p53, but not IkBα”.
